One block for each molecule: values may come before it.
Assays:
[1] = target: N-terminal domain of Drosophila virilis CTCF (1-144 aa), without Thioredoxin (Drosophila virilis); assay: SAXS; BM29 BioSAXS beamline (ESRF), 277 K, at least two concentrations; molecular mass from extrapolated I0 and protein standards
[2] = target: Thioredoxin-tagged N-terminal domain of Drosophila virilis CTCF (1-144 aa) (Drosophila virilis); assay: cross-linking; Thioredoxin-tagged NTDs, increasing concentrations of glutaraldehyde
[3] = target: the molecule itself; assay: as above
[4] = target: the molecule itself; assay: SAXS; BM29 BioSAXS beamline (ESRF), 277 K, at least two concentrations; molecular mass from extrapolated I0 and protein standards

stoichiometry N [1]: 2
Molecule: N-terminal domain of Drosophila virilis CTCF (1-144 aa), without Thioredoxin (domain or fragment)

stoichiometry N [2]: 2
Molecule: Thioredoxin-tagged N-terminal domain of Drosophila virilis CTCF (1-144 aa) (domain or fragment)

More lines, now with the values behind:

B1: Thioredoxin-tagged N-terminal domain of Drosophila melanogaster CTCF (1-163 aa) (domain or fragment, UniProt Q9VS55 1-163, looked up)
chain: MPRRTKKDEDPEDLQTFLNNFHKEIEGNSDEKVVNTILEAISAEAIDLDENGAEAGGSKPMEEAEADLDHAEEAEEEEEDDEDKYFIDDEGNCYIKTTPKKQKELQKKLKQAAAKPGKATRSVVSTATNKSINLRPAKSTPKATTSKPPPEPKAISVRPARAA
notes: CTCF, Drosophila melanogaster, N-terminal domain, residues 1-163; also called dmCTCF NTD; Thioredoxin-tagged Drosophila CTCF NTD
stoichiometry N [3]: 2

B2: N-terminal domain of Drosophila melanogaster CTCF (1-163 aa), without Thioredoxin (domain or fragment, UniProt Q9VS55 1-163, looked up)
chain: B1 chain
notes: Modified pET32a(+) with TEV-cleavable Thioredoxin-6xHis-tag. 'Without Thioredoxin' is said for SEC; for SAXS and DLS the tag state is inferred from the printed monomer mass (18 kDa); also called dmCTCF NTD; dmCTCF-NTD
stoichiometry N [4]: 4
